Experimental findings from patent US20080098490A1 are described below.

Assay [1] has as its target TNF-α receptors on U937 cells. The experiment in a line: 125I-TNF-α binding to U937 cells, no antibody.
Assay [2] has as its target IL-8 receptors on human neutrophils. The experiment in a line: 125I-IL-8 binding to human neutrophils, no antibody.
For assay [3], the target named is EGFR expressed on A431 cells or SW948 cells (human) (UniProt P00533). Description: inhibition of [125I]EGF binding to A431 cells (receptor binding assay, % specific bound); blocked ligand: EGF.

In turn, “human tumor necrosis factor-α (from UniProt P01375 77-233) (ligand)” returned a background binding in the absence of antibody in assay [1] of 4010 cpm.
As to “human IL-8 (from UniProt P10145 28-99) (ligand)”, the background binding in the absence of antibody in assay [2] turned out to be 2660 cpm.
Consider “mouse anti-human EGFR antibody 225 (Calbiochem)”, for which the IC50 (read off the curve) in assay [3] was found to be 20 nM.
